Source: the supplement of paper PMC10598134
± gives the standard deviation.

Test: collision cross section of unmodified peptide (TIMS, N2, iRT-aligned); higher = larger / more extended gas-phase ion
Method: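 Unmodified synthetic counterpart peptides (ProteomeTools / JPT), analysed by nanoLC-TIMS-QTOF (dda-PASEF). 1/K0 was aligned run-wise to spiked iRT peptides and converted to CCS in N2 (Mason-Schamp). Values are the mean of 1-3 technical replicates for the most abundant feature at each charge state. The same unmodified peptide is repeated across rows and is averaged.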

Substance	collision cross section (charge state: 2) [Å²]	collision cross section (charge state: 3) [Å²]
LSITGTYDLK	371.61 ± 0.6	–
GRGVGSPEPGPTAPYLGR	432.42	517.8 ± 0.62
SLFFGGKGAPLQR	408.73 ± 1.1	446.07 ± 3.4
GDNGSVGEPGPK	342.97 ± 0.86	–
GSHGQTPSPGALPLGR	–	463.73 ± 0.22
TLTPASSPVSSPSK	389.93 ± 0.025	–
SFSASGAQIVSR	366.99 ± 0.14	–
LDEKENLSAK	363.87 ± 1.4	445.27 ± 6.6
TTSYPTPRPYPKPAPSSGK	–	522.76 ± 0.86
LVFDEYLK	354.45 ± 0.59	–
VYSLFLDESR	376.99 ± 0.94	–
LLEQKTQESQK	394.71 ± 1.6	453.32 ± 3.2
SFDEVEGVFGRGGGR	414.68 ± 0.96	509.8 ± 1.2
VTLEVGKVIQQGR	428.45 ± 2.5	496.48 ± 2.3
VGADGTVFATR	348.87 ± 0.14	–
LNAIYQNNLTK	381.14 ± 0.16	–
CYYGSDTAGR	353.22 ± 1.1	–
LGVPGLPGYPGRQGPK	416.71 ± 0.59	493.33 ± 24
GDTGLPGPQGIPGGVGSPGR	429.26 ± 1	497.26 ± 35
SSSAGGQGSYVPLLR	402.55 ± 0.66	–
TGPPGSTGSRGPPGPPGR	–	459.15 ± 0.33
IPAASAAAMNLASAR	397.84 ± 0.66	496.43 ± 0.86
VETTVTSLKTK	379.41 ± 0.92	459.8 ± 3.1

Substance	collision cross section (charge state: 2) [Å²]	collision cross section (charge state: 3) [Å²]
LLRGVGGSHGR	358.18 ± 0.097	450.84 ± 3.9
THLAPYSDELR	381.48 ± 0.47	446.52 ± 1.7
DSRGGGGNFGPGPGSNFR	–	474.13 ± 0.75
SYSVGASGSSSR	351.41 ± 0.48	–
GHYTIGK	315.37 ± 1.9	–
GERGPPGPPGR	331 ± 1.5	441.17 ± 1.4
SPDEAYAIAKK	371.22 ± 1.1	435.25 ± 4.4
IHVQSSSDSSDEPAEKR	455.51 ± 2.8	536.3 ± 1.4
TPSSFRQPFTPTSR	–	486.75 ± 0.79
LDYSDFQIVK	368.99 ± 0.6	–
LGNDFHTNKR	369.4 ± 1.5	431.93 ± 3.7
GGNFGGRGGYGGGGGGSR	404.35 ± 1.4	464.41 ± 2.6
VTGGIFSVTK	335.98 ± 0.58	–
GNDISSGTVLSDYVGSGPPKK	–	543.89 ± 0.71
VMVAPISGSVTTGTK	396.94 ± 0.14	–
EGFSIPVSADGFK	384.97 ± 0.14	–
SGGGYGGDRGGGYGGDR	393.08 ± 1.3	460.09 ± 0.81
FSAYIKNSNPALNDNLEK	493.15 ± 3.7	521.97 ± 3.2
DVNAAIAAIKTK	391.89 ± 2.3	461.97 ± 1.6
ASEALLKQLK	367.26 ± 1.1	459.21 ± 3.1
DLYEPSHGAK	358.09 ± 0.48	429.53 ± 1.1
EPFSGDHSADGFEVTSR	–	491.61 ± 0.86
LPTTAASTPDAVDK	396.7 ± 0.66	–

Substance	collision cross section (charge state: 2) [Å²]	collision cross section (charge state: 3) [Å²]
SGFGKFER	339.56 ± 3	–
SGGYGGSRDYYSSR	399.15 ± 1.2	474.66 ± 1.4
SEASSEFAKK	351.87 ± 0.55	422.04 ± 3.9
FLQEFYQDDELGKK	448.73 ± 2.1	492.87 ± 3.2
TVQGPPGEPGR	344.87 ± 3.1	–
IVNVSLADLR	359.17 ± 0.57	–
HELQANCYEEVKDR	443.76 ± 2.4	527.87 ± 1.3
PASGAGAGAGAGKR	378.29 ± 1.2	457.42 ± 4
IQNGAQGIRFIYTR	–	511.04 ± 0.58
GDRGEIGPPGPR	366.43 ± 0.3	425.03 ± 1.2
SQAGASELGPFSDPR	396.36 ± 0.66	–
YEITEQR	326.96 ± 0.72	–
PGLKGEQGEPGAPGIR	410.66 ± 1.2	510.99 ± 0.86
GGPGAPGAPGPKGESGDYK	431.57 ± 1	489.8 ± 6.1
GGPGSTLSFVGKR	395.98 ± 0.53	456.87 ± 1.5
FSYTSQHSDYGQR	–	485.4 ± 1
TSAVSSQANSQPPVQVSVK	457.25 ± 1.5	542.62 ± 0.28
FGSRGGPGGGFR	358.01 ± 0.11	437.12 ± 3.8
GEKGNPGVGTQGPR	370.3 ± 0.92	437.26 ± 1.3
LYLPVQNK	336.72 ± 0.73	–
ASNAAVKLAESK	381.6 ± 0.7	452.24 ± 3.2
PGNSGIR	278.56 ± 0.86	–
CQGGQETQEYR	370.06 ± 0.16	–

Substance	collision cross section (charge state: 2) [Å²]	collision cross section (charge state: 3) [Å²]
FGRGTGLTQPSQR	395.55 ± 1.4	470.69 ± 2.1
PGLQGPR	285.1 ± 4.4	–
VSFLSALEEYTK	392.46 ± 0.78	–
AYDATHLVK	353.02 ± 0.48	420.22 ± 1.4
FRSGNYR	328.09 ± 0.7	402.54 ± 6.1
GPPRGGPGGELPR	366.24 ± 0.38	471.24 ± 3.4
EVVKPVPITSPAVSK	412.92 ± 0.57	534.95 ± 0.86
ITASLCDLKSR	397.44 ± 4.9	460.65 ± 3.9
ISSNFSSIIAEKLR	430.92 ± 3.1	511.25 ± 4.9
GPPGPPGRPGNSGIR	–	436.52 ± 1.7
KSQAGASELGPFSDPR	–	497 ± 1.7
ITESVAETAQTIKK	434.75 ± 1.5	508.11 ± 2.5
HGGSGGRGVSVSSAR	–	479.93 ± 1.3
IVFSGNLFQHQEDSKK	493.09 ± 3.3	531.43 ± 2
GRGAAAAGGPQR	344.37 ± 5.2	433.7 ± 4.8
YADLTEDQLPSCESLK	447.81 ± 1	–
GEAGPTGPQGEPGVRGIR	–	495.75 ± 4.4
LDHLAEKFR	365.36 ± 1.5	453.05 ± 4
TSSEASVSSSVAK	370.17 ± 0.67	–
IQTVPASHLQQGTASGSSK	–	490.25 ± 12
SLYASSPGGVYATR	405.12 ± 0.66	482.72 ± 0.22
SISQSISGQK	337.94 ± 0.14	–
GPQNATDSYVHK	381.43 ± 1.1	445.36 ± 1.8

Substance	collision cross section (charge state: 2) [Å²]	collision cross section (charge state: 3) [Å²]
RLDINTNTYTSQDLK	–	533.11 ± 1
GEVQVSDKER	363.87 ± 0.37	439.27 ± 4.5
YEATSVQQK	342.24 ± 1.4	–
GLPGPPGPQGESR	356.03 ± 0.79	–
GRGYFEHR	340.02 ± 0.52	409.47 ± 5.3
HVSPVTPPR	327.76 ± 0.64	–
LGVATVAKGVCGACK	433.92 ± 2.8	487.58 ± 4.2
LGPNDQYK	325.88 ± 0.73	–
AVAITQSPSSVR	368.2 ± 0.14	–
VVDLLAPYAK	358.2 ± 7.9	–
LRQQLQAK	346.98 ± 0.88	414.5 ± 11
GSAPPGPVPEGSIR	377.29 ± 0.67	–
VQFAPEKPGPQPSAETTR	–	507.38 ± 9.7
GATVTRGVPPPPTVR	421.15	511.54 ± 2
DDIIENAPTTHTEEYSGEEK	–	551.19 ± 0.23
RGGFAVQAK	337.58 ± 0.46	–
IQTKAGEATVK	361.35 ± 0.94	457.37 ± 4.1
RGATPPAPPRR	–	465.11 ± 2.3
PANEKATDDYHYEK	416.54 ± 2.6	493.57 ± 4.5
PGPVGPPGSGGLK	353.19 ± 0.41	–
